# Experiments:
# [1] = target: wild type human CCR5 chemokine receptor (human) (UniProt P51681)
# [2] = target: CCR5 Thr^2.56(82)Lys/Arg^6.32(225)Gln double-mutant receptor (human) (UniProt P51681)
# [3] = target: CCR5 Thr^2.56(82)Pro/Arg^6.32(225)Gln double-mutant receptor (human) (UniProt P51681)
# [4] = target: CCR5 Thr^2.56(82)Lys mutant receptor (human) (UniProt P51681)
# [5] = target: CCR5 Thr^2.56(82)Pro mutant receptor (human) (UniProt P51681)
substance,measurement,setting,value
"HIV-1C Du151 gp150 envelope glycoprotein (Env), carboxy-terminally truncated (natural protein)",Env-directed cell fusion (luciferase) on HOS-CD4-Luc cells; maximum fusion efficiency (fusion coefficient: luciferase activity divided by mean fluorescence) (fusion coefficient),[1],11.8
same,Env-directed cell fusion (luciferase) on HOS-CD4-Luc cells; maximum fusion,[2],16.8 % wild type
same,Env-directed cell fusion (luciferase) on HOS-CD4-Luc cells; maximum fusion efficiency (fusion coefficient) (fusion coefficient),[2],1.9
same,Env-directed cell fusion (luciferase) on HOS-CD4-Luc cells; maximum fusion,[3],135 % wild type
same,Env-directed cell fusion (luciferase) on HOS-CD4-Luc cells; maximum fusion efficiency (fusion coefficient) (fusion coefficient),[3],18.8
same,Env-directed cell fusion (luciferase) on HOS-CD4-Luc cells; maximum fusion,[4],4.6 % wild type
same,Env-directed cell fusion (luciferase) on HOS-CD4-Luc cells; maximum fusion efficiency (fusion coefficient) (fusion coefficient),[4],0.84
same,Env-directed cell fusion (luciferase) on HOS-CD4-Luc cells; maximum fusion,[5],135 % wild type
same,Env-directed cell fusion (luciferase) on HOS-CD4-Luc cells; maximum fusion efficiency (fusion coefficient) (fusion coefficient),[5],16.5

# — PMC3552960
